T1: FLAG/His6-p33 (Tomato bushy stunt virus, UniProt P15962 1-296)
T1 construct: p33 replication protein of Tomato bushy stunt virus (TBSV); also called FLAG-p33; FLAG-tagged p33; source: yeast, co-expressed, detergent-solubilized membrane fraction; not shown: FLAG, N-terminal, kept; His6, N-terminal, kept
T1 sequence: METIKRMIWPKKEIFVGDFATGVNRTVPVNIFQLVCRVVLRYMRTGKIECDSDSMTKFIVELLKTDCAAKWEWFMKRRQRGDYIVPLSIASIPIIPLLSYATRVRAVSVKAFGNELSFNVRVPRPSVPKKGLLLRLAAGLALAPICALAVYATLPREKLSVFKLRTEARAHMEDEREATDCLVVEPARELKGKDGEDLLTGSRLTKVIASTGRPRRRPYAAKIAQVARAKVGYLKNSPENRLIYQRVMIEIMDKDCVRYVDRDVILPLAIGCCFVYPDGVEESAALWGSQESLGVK


Legend:
Conditions in all cases: partners not purified
FLAG/His6-p33 [1] = target: T1, FLAG/His6-p33; assay: co-IP; FLAG-p33 purified from detergent-solubilized membrane fractions of wt yeast and of yeast co-expressing Ufe1ΔTM; co-purified cellular proteins measured by Western blotting; amount from WT yeast taken as 100%
FLAG/His6-p33 [2] = target: T1, FLAG/His6-p33; assay: co-IP; viral replicase purified by FLAG affinity from detergent-solubilized membrane fractions of yeasts expressing FLAG-p33, FLAG-p92 and the repRNA; WT yeast or yeast depleted of Ufe1p (GALS::UFE1) or Use1p (GAL1::USE1) on glucose; Western blot with anti-6xHis
FLAG/His6-p33 [3] = target: T1, FLAG/His6-p33; assay: co-IP; FLAG-p33 purified from detergent-solubilized membrane fractions of wt yeast and of yeast co-expressing Ufe1ΔTM; co-purified cellular proteins measured by Western blotting; amount from WT yeast taken as 100%; remark: listed apart in the source

Binder	percentage of host protein co-purified with p33 from yeast expressing Ufe1ΔTM (WT yeast = 100%) (FLAG/His6-p33 [1])	fold reduction of the co-purified amount in Ufe1p- or Use1p-depleted yeast against WT yeast (FLAG/His6-p33 [2])	fold reduction of the co-purified amount in yeast expressing Ufe1ΔTM against wt yeast (FLAG/His6-p33 [3])
Rpn11 deubiquitinase (enzyme, yeast (S. cerevisiae), UniProt P43588 1-306, looked up, Rpn11 deubiquitinase, co-opted cellular host factor in yeast; source: yeast, detergent-solubilized membrane fraction) MERLQRLMMNSKVGSADTGRDDTKETVYISSIALLKMLKHGRAGVPMEVMGLMLGEFVDDYTVNVVDVFAMPQSGTGVSVEAVDDVFQAKMMDMLKQTGRDQMVVGWYHSHPGFGCWLSSVDVNTQKSFEQLNSRAVAVVVDPIQSVKGKVVIDAFRLIDTGALINNLEPRQTTSNTGLLNKANIQALIHGLNRHYYSLNIDYHKTAKETKMLMNLHKEQWQSGLKMYDYEEKEESNLAATKSMVKIAEQYSKRIEEEKELTEEELKTRYVGRQDPKKHLSETADETLENNIVSVLTAGVNSVAIK	103 ± 6%	–	–
Cdc34 E2 enzyme (enzyme, yeast (S. cerevisiae), UniProt P14682 1-295, looked up, Cdc34 ubiquitin-conjugating enzyme of yeast; also called Cdc34 ubiquitin-conjugating enzyme; source: yeast, detergent-solubilized membrane fraction) MSSRKSTASSLLLRQYRELTDPKKAIPSFHIELEDDSNIFTWNIGVMVLNEDSIYHGGFFKAQMRFPEDFPFSPPQFRFTPAIYHPNVYRDGRLCISILHQSGDPMTDEPDAETWSPVQTVESVLISIVSLLEDPNINSPANVDAAVDYRKNPEQYKQRVKMEVERSKQDIPKGFIMPTSESAYISQSKLDEPESNKDMADNFWYDSDLDDDENGSVILQDDDYDDGNNHIPFEDDDVYNYNDNDDDDERIEFEDDDDDDDDSIDNDSVMDRKQPHKAEDESEDVEDVERVSKKI	109 ± 14%	–	–
His6-Osh6p (natural protein, yeast (S. cerevisiae), UniProt Q02201 1-448, looked up, also called 6xHis-tagged Osh6; Osh6 ORP (OSBP1-like); source: yeast, co-expressed, detergent-solubilized membrane fraction; not shown: His6, N-terminal, kept) MGSKKLTVGSDSHRLSKSSFSSNKSSHSATKDQPIDTDDIDEDDESGHNIILNIISQLRPGCDLTRITLPTFILEKKSMLERVTNQLQFPEFLLQAHSEKDPLKRFLYVMKWYLAGWHIAPKAVKKPLNPVLGEYFTAYWDLPNKQQAYYISEQTSHHPPECAYFYMIPESSIRVDGVVIPKSRFLGNSSAAMMDGSTVLQFLDIKDGNGKPEKYVLTQPNVYVRGILFGKMRIELGDHMIIKSPNFQADIEFKTKGYVFGTYDAIEGTVKDYDGNAYYEISGKWNDVMYLKDLKQPRSSPKVFLDTHKESPLRPKVRPLSEQGEYESRKLWKKVTDALAVRNHPVATEEKFQIEDHQRQLAKKRIEDGVEFHPKLFRRSKPGEDLDYCIYKNIPVDEDPEKQIRSILQIAPILPGQQFTDKFFIPAFEKIKSQKKMIENEKQNPAKQ	59 ± 24%	~7 fold	~3 fold
His6-VAP27-1 (natural protein, UniProt Q8VZ95 1-256, looked up, VAP27-1, plant ortholog of the yeast Scs2 VAP protein; also called 6xHis-tagged VAP27-1 (Scs2 ortholog); Vap27-1 (Scs2-like); source: yeast, co-expressed, detergent-solubilized membrane fraction; not shown: His6, N-terminal, kept) MSNIDLIGMSNRDLIGMSNSELLTVEPLDLQFPFELKKQISCSLYLTNKTDNNVAFKVKTTNPKKYCVRPNTGVVLPRSTCEVLVTMQAQKEAPSDMQCKDKFLLQGVIASPGVTAKEVTPEMFSKEAGHRVEETKLRVTYVAPPRPPSPVHEGSEEGSSPRASVSDNGHGSEFSFERFIVDNKAGHQENTSEARALITKLTEEKQSAIQLNNRLQRELDQLRRESKKSQSGGIPFMYVLLVGLIGLILGYIMKRT	68 ± 30%	~5 fold	–
Vps23p ESCRT factor (natural protein, yeast (S. cerevisiae), UniProt P25604 1-385, looked up, Vps23p ESCRT-I factor of yeast; also called Vps23 ESCRT I; source: yeast, detergent-solubilized membrane fraction) MSANGKISVPEAVVNWLFKVIQPIYNDGRTTFHDSLALLDNFHSLRPRTRVFTHSDGTPQLLLSIYGTISTGEDGSSPHSIPVIMWVPSMYPVKPPFISINLENFDMNTISSSLPIQEYIDSNGWIALPILHCWDPAAMNLIMVVQELMSLLHEPPQDQAPSLPPKPNTQLQQEQNTPPLPPKPKSPHLKPPLPPPPPPQPASNALDLMDMDNTDISPTNHHEMLQNLQTVVNELYREDVDYVADKILTRQTVMQESIARFHEIIAIDKNHLRAVEQAIEQTMHSLNAQIDVLTANRAKVQQFSSTSHVDDEDVNSIAVAKTDGLNQLYNLVAQDYALTDTIECLSRMLHRGTIPLDTFVKQGRELARQQFLVRWHIQRITSPLS	106 ± 7%	–	–
Tef1 eEF1A translation elongation factor (natural protein, yeast (S. cerevisiae), UniProt P02994 1-458, looked up, Tef1 eEF1A translation elongation factor of yeast; source: yeast, detergent-solubilized membrane fraction) MGKEKSHINVVVIGHVDSGKSTTTGHLIYKCGGIDKRTIEKFEKEAAELGKGSFKYAWVLDKLKAERERGITIDIALWKFETPKYQVTVIDAPGHRDFIKNMITGTSQADCAILIIAGGVGEFEAGISKDGQTREHALLAFTLGVRQLIVAVNKMDSVKWDESRFQEIVKETSNFIKKVGYNPKTVPFVPISGWNGDNMIEATTNAPWYKGWEKETKAGVVKGKTLLEAIDAIEQPSRPTDKPLRLPLQDVYKIGGIGTVPVGRVETGVIKPGMVVTFAPAGVTTEVKSVEMHHEQLEQGVPGDNVGFNVKNVSVKEIRRGNVCGDAKNDPPKGCASFNATVIVLNHPGQISAGYSPVLDCHTAHIACRFDELLEKNDRRSGKKLEDHPKFLKSGDAALVKFVPSKPMCVEAFSEYPPLGRFAVRDMRQTVAVGVIKSVDKTEKAAKVTKAAQKAAKK	67 ± 25%	–	–
Pbp2 RNA binding protein (natural protein, UniProt P38151 1-413, looked up, source: yeast, detergent-solubilized membrane fraction) MSTETTKPSITTTPTTVLVSPNTLKRKKGEDTSEEQLEAEIKRVALKDADSHSDNDHDSPDNVPSDVHLRMLCLVKHASLIVGHKGATISRIKSETSARINISNNIRGVPERIVYVRGTCDDVAKAYGMIVRALLEEHGNEDNGEDIEISINLLIPHHLMGCIIGKRGSRLREIEDLSAAKLFASPNQLLLSNDRILTINGVPDAIHIATFYISQTLLNFQMESPQKNVKRSIYYQPTQFNSVLIDHSQPNTIFHQRNHQYHPSDKLLSYKPNKNLPISSTLLSMATPQYTTASVANATAFQPNFVIPNVTVLDGPVISPAPGNHLLMNFVQQEIFIDEKFVGNVIGKDGKHINSVKESTGCSIIIQDPVEGSSERRLTIRGTFMASQAAIMLISNKIEIDRSNAERKRRSPL	122 ± 15%	–	–
Vps4p AAA+ ATPase (enzyme, yeast (S. cerevisiae), UniProt P52917 1-437, looked up, Vps4p AAA+ ATPase (an ESCRT protein) of yeast; also called Vps4 AAA ATPase; source: yeast, detergent-solubilized membrane fraction) MSTGDFLTKGIELVQKAIDLDTATQYEEAYTAYYNGLDYLMLALKYEKNPKSKDLIRAKFTEYLNRAEQLKKHLESEEANAAKKSPSAGSGSNGGNKKISQEEGEDNGGEDNKKLRGALSSAILSEKPNVKWEDVAGLEGAKEALKEAVILPVKFPHLFKGNRKPTSGILLYGPPGTGKSYLAKAVATEANSTFFSVSSSDLVSKWMGESEKLVKQLFAMARENKPSIIFIDEVDALTGTRGEGESEASRRIKTELLVQMNGVGNDSQGVLVLGATNIPWQLDSAIRRRFERRIYIPLPDLAARTTMFEINVGDTPCVLTKEDYRTLGAMTEGYSGSDIAVVVKDALMQPIRKIQSATHFKDVSTEDDETRKLTPCSPGDDGAIEMSWTDIEADELKEPDLTIKDFLKAIKSTRPTVNEDDLLKQEQFTRDFGQEGN	44 ± 27%	–	–
eIF4AIII-like RH2 DEAD-box helicase (enzyme, UniProt Q94A52 1-408, looked up, eIF4AIII-like RH2 DEAD-box helicase; source: yeast, detergent-solubilized membrane fraction) MATANPGRGGGRRGGGAMDDDKLVFETTDGIEPITSFNDMGIKEDVLRGVYEYGFEKPSAIQQRAVMPILQGRDVIAQAQSGTGKTSMIALSVCQVVDTSSREVQALILSPTRELATQTEKTIQAIGLHANIQAHACIGGNSVGEDIRKLEHGVHVVSGTPGRVCDMIKRRSLRTRAIKLLILDESDEMLSRGFKDQIYDVYRYLPPDLQVCLVSATLPHEILEMTSKFMTEPVKILVKRDELTLEGIKQFFVAVEKEEWKFDTLCDLYDTLTITQAVIFCNTKRKVDYLSEKMRSHNFTVSSMHGDMPQKERDAIMNEFRSGDSRVLITTDVWARGIDVQQVSLVINYDLPNNRELYIHRIGRSGRFGRKGVAINFVKSDDIKILRDIEQYYSTQIDEMPMNVADLI	70 ± 18%	–	–
Tdh2p (GAPDH) (enzyme, yeast (S. cerevisiae), UniProt P00358 1-332, looked up, Tdh2p glyceraldehyde-3-phosphate dehydrogenase of yeast; also called Tdh2 GAPDH; source: yeast, detergent-solubilized membrane fraction) MVRVAINGFGRIGRLVMRIALQRKNVEVVALNDPFISNDYSAYMFKYDSTHGRYAGEVSHDDKHIIVDGHKIATFQERDPANLPWASLNIDIAIDSTGVFKELDTAQKHIDAGAKKVVITAPSSTAPMFVMGVNEEKYTSDLKIVSNASCTTNCLAPLAKVINDAFGIEEGLMTTVHSMTATQKTVDGPSHKDWRGGRTASGNIIPSSTGAAKAVGKVLPELQGKLTGMAFRVPTVDVSVVDLTVKLNKETTYDEIKKVVKAAAEGKLKGVLGYTEDAVVSSDFLGDSNSSIFDAAAGIQLSPKFVKLVSWYDNEYGYSTRVVDLVEHVAKA	64 ± 17%	–	–
Pex19p shuttle protein (natural protein, yeast (S. cerevisiae), UniProt Q07418 1-342, looked up, Pex19p peroxisome membrane-biogenesis protein of yeast; source: yeast, detergent-solubilized membrane fraction) MNENEYDNFDDLDDLLDEDPTKLDEAEPDDVQAKGSVYNDSENKEKNAESKDSDGVQVANESEEDPELKEMMVDLQNEFANLMKNNGNENNVKTEDFNKLISALEEAAKVPHQQMEQGCSSLKSNSTDKGTVNGSNPGFKNIVSNTLDRLKENGNKVDTSLAEETKESQRSGQNNNIDDILSQLLDQMVASGGKESAENQFDLKDGEMDDAITKILDQMTSKEVLYEPMKEMRSEFGVWFQENGENEEHKEKIGTYKRQFNIVDEIVNIYELKDYDELKHKDRVTELLDELEQLGDSPIRSANSPLKHGNEEEELMKMLEIDGNDPNLGNLDKELTDGCKQQ	56 ± 13%	–	–

— PMC5963807, “Assembly-hub function of ER-localized SNARE proteins in biogenesis of tombusvirus replication compartment” (PLoS Pathogens, 2018)
